According to publication PMC6648347, “Effective mismatch repair depends on timely control of PCNA retention on DNA by the Elg1 complex” (Nucleic Acids Research, 2019):

Biological target: the molecule itself
Test: crystal structure; hanging drop, room temperature; 50 mM sodium citrate pH 5.3, 1.7 M (NH4)2SO4 for PCNA-D17K; 50 mM sodium citrate pH 5.6, 2 M (NH4)2SO4 for PCNA-D21K; molecular replacement with wild-type PCNA (PDB 4YHR)

Protein | binding result
PCNA-D17K (recombinant, crystallised) (natural protein, S. cerevisiae, PCNA (POL30), S. cerevisiae, with D17K; modified pET-28 vector with an N-terminal 6-His tag and a PreScission Protease cleavage site; also called PCNA mutant D17K) MLEAKFEEASLFKRIIKGFKDCVQLVNFQCKEDGIIAQAVDDSRVLLVSLEIGVEAFQEYRCDHPVTLGMDLTSLSKILRCGNNTDTLTLIADNTPDSIILLFEDTKKDRIAEYSLKLMDIDADFLKIEELQYDSTLSLPSSEFSKIVRDLSQLSDSINIMITKETIKFVADGDIGSGSVIIKPFVDMEHPETSIKLEMDQPVDLTFGAKYLLDIIKGSSLSDRVGIRLSSEAPALFQFDLKSGFLQFFLAPKFNDEE | binds
PCNA-D21K (recombinant, crystallised) (natural protein, S. cerevisiae, PCNA (POL30), S. cerevisiae, with D21K; modified pET-28 vector with an N-terminal 6-His tag and a PreScission Protease cleavage site; also called PCNA mutant D21K) MLEAKFEEASLFKRIIDGFKKCVQLVNFQCKEDGIIAQAVDDSRVLLVSLEIGVEAFQEYRCDHPVTLGMDLTSLSKILRCGNNTDTLTLIADNTPDSIILLFEDTKKDRIAEYSLKLMDIDADFLKIEELQYDSTLSLPSSEFSKIVRDLSQLSDSINIMITKETIKFVADGDIGSGSVIIKPFVDMEHPETSIKLEMDQPVDLTFGAKYLLDIIKGSSLSDRVGIRLSSEAPALFQFDLKSGFLQFFLAPKFNDEE | binds
